Measured values as given in patent publication US20220364142.
Numbering of substitutions follows the chain as printed. Numbers in names are those of the source.

Columns and labels:
[1] = biological target: T1, Consensus peptide P4'P (EVKALEEP) (not fully specified)
T1 chain: EVKALEEP

[2] = biological target: T2, DABCYL-TPLKSPPPSPR-EDANS (Calpain Substrate III; Calbiochem)
T2 chain: TPLKSPPPSPR

[3] = biological target: T3, Consensus peptide P2R (EVRALEEA) (not fully specified)
T3 chain: EVRALEEA

[4] = biological target: T4, Consensus peptide P4'A (EVKALEEA) (not fully specified)
T4 chain: EVKALEEA

[5] = biological target: T5, Consensus peptide P3GP1'V (EGKAVLEA) (not fully specified)
T5 chain: EGKAVLEA

PR1478 peptide = biological target: T6, PR1478 peptide
T6 chain: WRQNRGGGCINH

PR1476 peptide = biological target: T7, PR1476 peptide
T7 chain: RQNRGGGCINH

B1: CAPN5-G267S protease core domain (protein)
chain: MFSCVKPYEDQNYSALRRDCRRRKVLFEDPLFPATDDSLYYKGTPGPAVRWKRPKGICEDPRLFVDGISSHDLHQGQVGNCWFVAACSSLASRESLWQKVIPDWKEQEWDPEKPNAYAGIFHFHFWRFGEWVDVVIDDRLPTVNNQLIYCHSNSRNEFWCALVEKAYAKLAGCYQALDGGNTADALVDFTGGVSEPIDLTEGDFANDETKRNQLFERMLKVHSRGGLISASIKAVTAADMEARLACGLVKGHAYAVTDVRKVRLGHSLLAFFKSEKLDMIRLRNPWGEREWNGPWSDTSEEWQKVSKSEREKMGVTVQDDGEFWMTFEDVCRYFTDIIKCRVI
- hydrolysis of consensus FRET peptide [1]: These substrates were hydrolyzed by 1.6 µM CAPN5-PC p.G267S in the presence of 10 mM Ca^2+
- hydrolysis of FRET substrate (EDANS signal) [2]: DABCYL-TPLKSPPPSPR (SEQ ID NO:3)-EDANS (Calpain Substrate III; Calbiochem; 40 µM) hydrolysis by 50 nM CAPN5-G267S protease core domain
- catalytic efficiency (kcat/Km) [3]: 11 vs. 7 M^-1s^-1
- hydrolysis of consensus FRET peptide [3]: These substrates were hydrolyzed by 1.6 µM CAPN5-PC p.G267S in the presence of 10 mM Ca^2+
- substrate turnover (kcat) [3]: The observed substrate turnover (kcat) of these consensus peptides indicated that peptide P2R is preferred by CAPN5-PC and suggests a preference for arginine in the P2 subsite
- hydrolysis of consensus FRET peptide [4]: These substrates were hydrolyzed by 1.6 µM CAPN5-PC p.G267S in the presence of 10 mM Ca^2+
- hydrolysis of consensus FRET peptide [5]: These substrates were hydrolyzed by 1.6 µM CAPN5-PC p.G267S in the presence of 10 mM Ca^2+

B2: Calpain-5 protease core domain (CAPN5-PC) (protein)
chain: B1 chain with S267G
- proteolytic cleavage of FRET peptide substrate (EDANS fluorescence) (PR1478 peptide): PR1478 also displays activity in a CAPN5 dose-dependent manner
- substrate quality compared with PR1476 (PR1478 peptide): a tryptophan was added to the N-terminus of PR1476, which makes PR1478 a better substrate for CAPN5
- catalytic efficiency (kcat/Km) (PR1476 peptide): 11 vs. 7 M^-1s^-1
- proteolytic cleavage of FRET peptide substrate (EDANS fluorescence) (PR1476 peptide): PR1476 displays activity in a CAPN5 dose-dependent manner
